Results reported in patent US20240093191A1, “COMPOSITIONS AND METHODS FOR TREATING DISEASE ASSOCIATED WITH DUX4 OVEREXPRESSION” (RESEARCH INSTITUTE AT NATIONWIDE CHILDREN'S HOSPITAL, priority 2021, published 2024).

Legend:
Type in all cases: cell-based, human
[1] = system: mir-675-5p; assay: TaqMan QRT-PCR of mature mir-675-5p from transfected constructs in HEK293 cells
From the text: (§1) RNA Extraction. RNA from HEK293 cells was extracted for Northern blot assay and QPCR. The miRVANA miRNA isolation kit (ThermoFisher Scientific) was used according to manufacturer's directions to extract total RNA encompassing small RNAs, such as miRNAs. To extract RNA from C57BL/6 skeletal muscles, cryopreserved muscles were crushed under suboptimal temperatures using liquid nitrogen and using mortar and pestle. Crushed muscles were then lysed using […] of miRVANA miRNA isolation kit lysis buffer, a TissueLyser and 1.0 mm zirconia beads (Biospec). Muscle was homogenized at 30 Hz for 30 sec with 10 sec rest. This was repeated 3 times.
(§2) TaqMan Gene Expression Assay. QRT-PCR was carried out to quantify the expression of pri-mir-675, mir-675-5p and mi405 using TaqMan probes (ThermoFisher Scientific). Experiments were started by eliminating genomic DNA from the RNA preparations, and then cDNA was generated using the High-Capacity cDNA Reverse Transcription Kit (Applied Biosystems) following manufacturer's instructions. Within the same cDNA reaction, 1×RT random hexamer primers were used to generate the cDNA for RPL13A, used as a reference gene, and for pri-mir-675. To generate the cDNA for mir-675, the RT mir-675 reverse primer provided by ThermoFisher Scientific was used. For mi405, the mi405 qPCR protocol was done as it was previously described [Wallace et al., Mol. Ther. Methods Clin. Dev. 8: 121-30 (2018)]. To quantify mir-675 and mi405 levels, RNA was extracted using the total RNA protocol for the mirVana miRNA Isolation Kit (Ambion) from HEK293 cells. cDNA was generated using the High-Capacity cDNA Reverse Transcription Kit (Applied Biosystems) using a mix of random hexamer primers and specific reverse primer for pri-mir-675 and mir-675-5p. For mi405, 200 nM of the stem-loop forming primer (5′-[…]-3′) (SEQ ID NO: 144) was also used for the RT step. A custom TaqMan assay (Applied Biosystems) including 1.5 μM of Forward primer (5′-[…]-3′) (SEQ ID NO: 145), 0.7 μM of Reverse primer (5′-GTGCAGGGTCCGAGGT-3′) (SEQ ID NO: 146), and 0.2 μM of mi405 probe (5′-6FAM-ATACGACGTCCAGGAT-3′) (SEQ ID NO: 147) was then run using the CFX Connect Real Time system apparatus (Bio-Rad). RPL13A (Mm02526700_g1; Applied Biosystems) served as the reference gene. The TaqMan gene expression assay consisted of using the TaqMan Gene Expression Master mix and TaqMan probes purchased from ThermoFisher Scientific. 1× of probe was mixed with 1× of the TaqMan Gene Expression Master mix (ThermoFisher Scientific), and with 20 ng of cDNA. The mir-675- and mi405-specific primers and probes were designed to quantify only the mir-675-5p and mi405 mature sequence (see TaqMan Gene Expression Master mix protocol).

[2] = system: CDC6; assay: QPCR of CDC6 in transfected HEK293 cells; conditions: 48 h, relative to U6.milacZ
Method: The expression of SMAD1, SMAD5 and CDC6 was measured by QPCR in HEK293 cells using TaqMan probes specific to each investigated gene. To do that, U6.milacZ (negative control), H1.mir-675, U6.mir-675-3p or U6.mir-675-5p expressing constructs were transfected into HEK293 cells, and total RNA was extracted 48h after transfection. As a result, U6.mir-675-3p reduced SMAD1 levels by an average of 32±6% (P<0.044, ANOVA, N=3) and SMAD5 levels by an average of 35±6% (P<0.0013, ANOVA, N=3). On the other hand, H1.mir-675 and U6.mir-675-5p repressed CDC6 levels by an average of 38±4% (P<0.0034, ANOVA, N=3) and 36±7% (P<0.0048, ANOVA, N=3), respectively. Results were reported as relative gene expression (ΔΔCq)±SEM of three replicates (N=3) relative to gene expression in cells transfected with U6.milacZ, with each QPCR assay performed in triplicate. All results were quantified using as reference gene the house keeping gene RPL13A.
Along with a previous study showing the beneficial effect of mir-675 on regeneration and differentiation of injured mouse skeletal muscles [Dey et al., Genes Dev. […] QPCR was used to measure the expression of SMAD1, SMAD5 and CDC6 in HEK293 cells using TaqMan probes specific to each investigated gene. […] All results were quantified using as reference gene the house keeping gene RPL13A. […]

[3] = system: pri-mir-675; assay: TaqMan QRT-PCR of pri-mir-675 from transfected constructs in HEK293 cells; conditions: 24 h post-transfection
From the text: as §1, §2

B1: H1.mir-675: commercially available H1 promoter mir-675 expression plasmid (SBI Biosciences) (nucleic acid)
DNA: GAACGCTGACGTCATCAACCCGCTCCAAGGAATCGCGGGCCCAGTGTCACTAGGCGGGAACACCCAGCGCGCGTGCGCCCTGGCAGGAAGATGGCTGTGAGGGACAGGGGAGTGGCGCCCTGCAATATTTGCATGTCGCTATGTGTTCTGGGAAATCACCATAAACGTGAAATGTCTTTGGATTTGGGAATCTTATAAGTTCTGTATGAGACCACCCCCCAGGGTCTGGTGCGGAGAGGGCCCACAGTGGACTTGGTGACGCTGTATGCCCTCACCGCTCAGCCCCTGGGGAATTCTTCGATTCTGCTTTTTT
mir-675-5p levels compared to U6.mir-675 ([1]; 23 mer mature mir-675-5p, HEK293, 24 h post-transfection): 232±35%
mir-675-5p overexpressed levels compared to milacZ sample ([1]; HEK293 co-transfected with CMV.DUX4-FL/CMV.eGFP): ~2000 fold
repression of CDC6 levels [2]: 38±4%
pri-mir-675 levels compared to U6.mir-675 [3]: 320±43%
